Experimental findings from patent US20230052168A1 (ROYAL COLLEGE OF SURGEIONS IN IRELAND, published 2023) are described below.

Positions count from the first letter of the chain named. Names may count otherwise.

Experiment [1] addresses T1, protein C (zymogen) (UniProt P04070 43-461).
T1 construct: also called PC
Put plainly: inferred from APC generation assay on endothelial cells with E86A control. As for the experimental part:
(§1) Protein C (100 nM) and thrombin (5 nM) were added with h-sEPCR^Snoop (1 μM) or h-sEPCR-E86A^Snoop (1 μM) an sEPCR variant unable to bind to PC/APC, then incubated for 30 minutes. […] The net effect of this restriction of APC generation. Statistical analysis of experimental data was performed using one-way ANOVA and Tukey's multiple comparison post hoc analysis. ns signifies non-significant, * signifies a p value of <0.05.
(§2) Assessment of h-sEPCR^Snoop Inhibition of Protein C Activation by the Thrombin-Thrombomodulin Complex on Endothelial Cells Protein C (100 nM) and thrombin (5 nM) were added with h-sEPCR^Snoop (1 μM) or h-sEPCR-E86ASnoop (1 μM) an sEPCR variant unable to bind to PC/APC, then incubated for 30 minutes. […] The net effect of this restriction of APC generation. Statistical analysis of experimental data was performed using one-way ANOVA and Tukey's multiple comparison post hoc analysis. ns signifies non-significant, * signifies a p value of <0.05 (see FIG. 5).

Experiment [2] deals with T1, protein C (zymogen). Put plainly: control in APC generation assay on endothelial cells (protein C 100 nM, thrombin 5 nM). As for the experimental part: as §1, §2

T1 sequence (P04070 43-461): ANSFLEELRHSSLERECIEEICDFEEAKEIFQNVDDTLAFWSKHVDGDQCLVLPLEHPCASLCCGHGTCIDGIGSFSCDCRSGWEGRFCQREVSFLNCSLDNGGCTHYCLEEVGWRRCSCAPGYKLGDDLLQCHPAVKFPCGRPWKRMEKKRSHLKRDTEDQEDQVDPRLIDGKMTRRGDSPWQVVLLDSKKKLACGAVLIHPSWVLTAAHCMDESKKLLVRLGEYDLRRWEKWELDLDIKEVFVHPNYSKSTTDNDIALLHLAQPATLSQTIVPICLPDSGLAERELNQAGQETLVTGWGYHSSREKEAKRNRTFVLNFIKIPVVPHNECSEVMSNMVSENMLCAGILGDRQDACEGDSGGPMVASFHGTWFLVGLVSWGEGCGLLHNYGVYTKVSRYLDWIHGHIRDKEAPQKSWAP

B1: h-sEPCR^Snoop (recombinant human soluble endothelial cell protein C receptor with GSGGSG linker, SnoopTag and C-terminal His-tag) (receptor)
chain: SQDASDGLQRLHMLQISYFRDPYHVWYQGNASLGGHLTHVLEGPDTNTTIIQLQPLQEPESWARTQSGLQSYLLQFHGLVRLVHQERTLAFPLTIRCFLGCELPPEGSRAHVFFEVAVNGSSFVSFRPERALWQADTQVTSGVVTFTLQQLNAYNRTRYELREFLEDTCVQYVQKHISAENTKGSQTSRSYTSGSGGSGKLGDIEFIKVNKHHHHHH
notes: Expressed in HEK293 cells, purified on nickel; The printed entry still carries the N-terminal signal peptide; also called human sEPCR^Snoop; r-sEPCR
Turning to B1, the binding result with protein C (zymogen) [1] is listed as “binds”.

B2: h-sEPCR-E86A^Snoop (receptor)
chain: B1 chain with E86A
In the case of B2, the binding result in the experiment with protein C (zymogen) [2] was “no binding (tested: 1 µM)”.
